Test results taken from the supplement of paper PMC10126150.
± gives the standard deviation of the averaged measurements.

Tested on: ATP
Experiment: switch fluorescence ratio, 500 uM ATP over buffer (Cy3 cluster intensity, sum of 5 cycles each) (fold (ratio)); higher = stronger signal-on switching upon ATP binding; sequences stand for … in TCGTCGGCAGCGTCAGATGTGTATAAGAGACAGTTTTTTTTTTTTTTTTTTTTTTTTT…TC
Conditions: aptamer strand: ATP DNA aptamer (quencher-CACCTGGGGGAGTATTGCGGAGGAAGG + anchor), 100 nM annealed; ATP concentration: 500 uM
In short: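 Exposure to 500 uM ATP lasted 15 min at 22 °C before imaging, and a selection-buffer image was taken beforehand, for Cy3-labelled switching-strand clusters on a modified Illumina MiSeq flow-cell annealed to 100 nM quencher-labelled ATP aptamer. Five buffer/ATP cycles were run with NaOH stripping and re-annealing between them. The fluorescence ratio per cluster is summed target-cycle over summed buffer-cycle Cy3 intensity, averaged per switch-domain sequence. Clusters outside 100-1000 RFU were excluded.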

Sequence | switch fluorescence ratio
TAGGTGGGCA | 0.987 ± 0.054
CGAGGTTAAT | 1.051 ± 0.0011
TTTCCCAGGA | 1.13 ± 0.038
CGATTTTTTT | 1.02 ± 0.05
GGTGAATAAT | 0.9969 ± 0.0065
AAGCGGCTCG | 0.996 ± 0.03
TTGAGGCGAT | 1.23 ± 0.22
GTTATTTACG | 1.02 ± 0.033
CGGGGCACCA | 0.99 ± 0.032
ATGAGATTGC | 0.9899 ± 0.0076
TTGGCACGGG | 1.03 ± 0.022
TACGAAATGT | 1.041 ± 0.0098
AATGGGGTAT | 1.02 ± 0.018
GTTGATGGTG | 1 ± 0.039
GGACCTGGTT | 0.986 ± 0.013
GCTAAAACCG | 1.06 ± 0.052
GGGGTCAGCG | 0.974 ± 0.012
GACTAGGGGT | 1.005 ± 0.0078
GATGGAACGG | 1.05 ± 0.039
GATAATAGTG | 1.08 ± 0.073
GGGTTAGAGA | 0.9668 ± 0.0032
GTTCTTGGAG | 0.9991 ± 0.0031
TTAGGTTTTT | 1.08 ± 0.19

Sequence | switch fluorescence ratio
GTTGTTATTT | 1 ± 0.011
GGTACGAAGT | 1.01 ± 0.027
GTTTCTGTTA | 0.9574 ± 0.0033
AGTAGGGTTA | 0.989 ± 0.029
TAAAGGTGTA | 1 ± 0.026
AGTACGGTGC | 1.02 ± 0.017
TGGACTACGC | 1.06 ± 0.012
TGGGAGTTTT | 1.02 ± 0.047
TTTGTTTACT | 0.99165 ± 0.00046
GAGGTTTGGG | 0.982 ± 0.035
ATTCTCAGTG | 1.01 ± 0.038
TAATTCTTGG | 0.972 ± 0.046
TCCAATTGGA | 0.9855 ± 0.0021
AGGGAAATGA | 0.987 ± 0.024
TTTCAAATTG | 0.973 ± 0.028
TAAGGCTGTG | 1 ± 0.017
TGATCAAATG | 0.989 ± 0.023
TAAGGCACGC | 1.01 ± 0.027
TTTGTAGGCG | 0.983 ± 0.13
GGGGTCTACC | 0.974 ± 0.014
TCCGGGTTGT | 1.04 ± 0.056
GCCGGATTCG | 1.02 ± 0.013
GGGAGGTCAT | 0.9731 ± 0.0065

Sequence | switch fluorescence ratio
ATAAGGAGGA | 1.1 ± 0.23
TTAAAGTGCC | 1.01 ± 0.0072
AGCTTTTTTG | 1.024 ± 0.0039
GCTCGAAGTT | 0.978 ± 0.029
TGTGATATAT | 0.9877 ± 0.0011
CGCGGTGTGG | 1.03 ± 0.022
GTTTATAGGG | 0.985 ± 0.025
TTATGGTTGG | 0.995 ± 0.012
AACGACTTGT | 1.01 ± 0.037
TATGACGCGG | 0.9833 ± 0.0053
ACGAGGTAGA | 1.02 ± 0.021
GGCCTGGGAC | 1.01 ± 0.027
AATCCCTTTT | 1 ± 0.031
CAGCTTTAAT | 1.03 ± 0.02
AGGTAGCACA | 1.056 ± 0.0036
GGGGGTGCTC | 1.01 ± 0.023
CGATGTTTTG | 0.969 ± 0.031
TTGGAATGT | 1.029 ± 0.0083
GCGAAAAGGA | 1.02 ± 0.011
TTATTTTTGG | 0.989 ± 0.027
AGAGTAGTTG | 0.9708 ± 0.0076
TGATTGGGGG | 0.989 ± 0.031
CGGGAGGGGC | 1.02 ± 0.058

Sequence | switch fluorescence ratio
ACGCATTTGG | 1.1159 ± 0.00088
TATTTACAGG | 1.033 ± 0.0084
TGGATTTTTG | 0.9666 ± 0.0042
GAGGGGATAT | 1.38 ± 0.59
GGGTCTCCAT | 1.02 ± 0.03
ATAGCTGGAA | 0.9678 ± 0.0011
CAAGAAGATG | 0.9523 ± 0.0012
TTGGTTATAG | 1.01 ± 0.011
TATTATTTTG | 1 ± 0.049
TTCAGCTGAG | 0.9861 ± 0.0091
AAGGCTTGGG | 0.992 ± 0.048
GAGCTTGTGG | 1.03 ± 0.015
GTGTGACCGT | 1.02 ± 0.024
TGATGGGTAT | 1 ± 0.028
CAAGCAAGAT | 2.58 ± 0.24
CTAAAGGGGG | 0.998 ± 0.029
TAACAGGTTG | 1.02 ± 0.019
ACGTTCGCGG | 0.985 ± 0.028
GTGTTTGCTA | 1.02 ± 0.032
ATTTAAGCTT | 1.07 ± 0.048
TACTTTGGTT | 0.975 ± 0.038
AAGTAAAGCT | 1.11 ± 0.06
CCACTAGGGC | 1.09 ± 0.017

Sequence | switch fluorescence ratio
TAAGATGGTG | 0.981 ± 0.011
ATTTTAGAAT | 1.02 ± 0.03
TGGAGTAGAT | 0.986 ± 0.038
TTTAGTTCCG | 0.935 ± 0.025
GGTTGAGTCG | 0.989 ± 0.014
GGCGTAGTTA | 0.985 ± 0.018
TGTGCTATTG | 0.983 ± 0.058
TATCCGAACG | 1.4467 ± 0.00019
GAGTTGGGGA | 1 ± 0.036
TTATTTAGTT | 1.01 ± 0.017
GGAAATACGA | 1.27 ± 0.036
TCATGCTGAG | 0.98 ± 0.0077
TTTTAATGTT | 1 ± 0.046
AAAGGCCATG | 1.02 ± 0.0045
CTTTGGCGCC | 0.986 ± 0.014
TGCGGAAAAC | 1.72 ± 0.82
GCGTTTAGAT | 1.02 ± 0.013
TTGGAGGGCG | 1.03 ± 0.017
AATTTCGGGG | 0.999 ± 0.017
TGAGATAAAG | 0.967 ± 0.001
AAGAGCGAGG | 0.945 ± 0.036
TGGGGTTGTT | 0.985 ± 0.033
GAGAGATCG | 0.982 ± 0.021

Sequence | switch fluorescence ratio
GGCTCCGGTT | 1.19 ± 0.084
CGAATTGGTA | 0.982 ± 0.011
GTATGCCTTC | 1 ± 0.032
GGTGTCAGGG | 0.989 ± 0.013
TCGTGTTACT | 1.005 ± 0.008
GAGCTGGGCG | 0.969 ± 0.13
TGGGGTAGCA | 1.01 ± 0.029
CGAATTTGTC | 1.02 ± 0.035
TTTATGAGTG | 0.997 ± 0.031
TTTTGGTCTC | 0.985 ± 0.036
ACTTGATTTT | 1.02 ± 0.015
ACATGATCTC | 0.993 ± 0.021
GGGCAGATAT | 1.02 ± 0.017
GGTGAACAGT | 0.97143 ± 0.00048
GATCATAATA | 0.995 ± 0.043
GCGGGGAAAT | 0.971 ± 0.021
ACGTGCAGTT | 1.02 ± 0.012
CGCGGGGGTA | 0.995 ± 0.03
ATCGCGAGGA | 1.026 ± 0.0025
AACTTTTCAT | 1.02 ± 0.02
CTGAATTAGG | 0.988 ± 0.02
TTTGTGGGGA | 1 ± 0.026
AACTCTAGCA | 1.073 ± 0.0052

Sequence | switch fluorescence ratio
ATGGAAGTGC | 0.9827 ± 0.0068
GCGATACGCA | 1.07 ± 0.041
ATGAGAAGGC | 0.997 ± 0.038
GGGAGGGGGG | 0.994 ± 0.032
AGATCGCTTG | 0.975 ± 0.0019
AGTGTATATG | 1.1 ± 0.099
AGGGCTCCTG | 1.0172 ± 0.00034
TGGTTGTCGT | 1.01 ± 0.033
ATTGAATGGT | 1.006 ± 0.0027
AAAAGTCGGC | 1.04 ± 0.057
TAAACCGATG | 1.21 ± 0.048
GGTGGTTGTT | 1.01 ± 0.043
CGCATGTTTC | 1.2 ± 0.15
TCTGTTGCAG | 0.999 ± 0.024
TCAGGGCGTG | 1 ± 0.026
TATTCGGGAG | 1.0052 ± 0.00035
AGTTAAGGGA | 0.991 ± 0.062
TTTGGGCCTT | 1.02 ± 0.034
CATAAAGTAG | 1.02 ± 0.014
